{"source": "patent US20230176070A1", "binders": {"B1": {"name": "H10 (VHH)", "VHH": "DVQLVESGGGLVQAGGSLRLSCRASGLPFGPYTMGWFRQTPGQEREFVAAITWSSMNTNYADSVKGRFTISRDSAKNTVYLQMNTLKPDDTAVYYCAADDRAVPMLGDFEDYIYWGQGTQVTVSS"}, "B2": {"name": "H13 (VHH)", "VHH": "HVQLVESGGGLVQAGGSLRLSCAASGRTFSTYHMGWFRQAPGKAREFVAAITGSGGITYYADSVKGRFTISRDNAKNTVYLQMNSLKPEDTAVYYCAADTRAYGLVPSTTSSRYNYWGQGTQVTVSS"}, "B3": {"name": "H23 (VHH)", "VHH": "DVQLVESGGGLVQAGGSLTLSCAASGRTFSSSTMGWFRRAPGKEREFVAAISGSARTTDYADSVKGRFTISRDNAKNTVYLQMISLKPEDTAIYYCARKRVVDVTTSNYELRYDYWGQGTQVTVSS"}, "B4": {"name": "H31 (VHH)", "VHH": "QVQLVESGGGLVQPGGSLRLSCTPSGFRLEDYPIAWFRQAPGKEREGLSCITSGDGRTYYEESVKGRFTISRDNAQNKVYLQMNKLTPEDTAVYHCATVPSDNLCGYLHRRPFASWGQGTQVTVSS"}, "B5": {"name": "H32 (VHH)", "VHH": "HVQLVESGGGLVQAGGSLRLSCAASDTIDNYARAWFRQAPGKEREFVAAITWTFGTPYYTDSVKGRFTISRDDAKNTVYLQMNSLKPEDTAVYYCAASLYLPVRTASGGYRLDTDRPQYWGQGTQVTVSS"}, "B6": {"name": "H33 (VHH)", "VHH": "HVQLVESGGGLVQAGGSLRLSCAASGRTLSSYDMGWFRQPPGKEREFVAAITRHDFNTFYRDSVKGRFTISRDNAKNTVYLQMNSLKSEDTAVYFCAARLDPIFASNSEYAPLYDYWGQGTQVTVSS"}, "B7": {"name": "H34 (VHH)", "VHH": "B6 VHH with H1Q, Q39K, P40A, F56Y, F59Y, E109A, A111S, P112N"}, "B8": {"name": "H37 (VHH)", "VHH": "QVQLVESGGGLVQAGGSLRLSCAASGLTFSNYALGWFRRAPGKERDFVAAISYSGGSTDYADSVKGRFTISRDNAKNTVYLQMNSLKPEDTAVYYCAAAYLGWGTARTAYEYWGQGTQVTVSS"}, "B9": {"name": "H38 (VHH)", "VHH": "B8 VHH with Q1H, G26E, L34M, D46G, N77K, L101M, T108S"}, "B10": {"name": "H39 (VHH)", "VHH": "QVQLVESGGGLVQAGVSLRLSCAASERTFSSYIMGWFRQAPGKEREFIAAISWSGGNTDYAGSVQGRFTISRDNAQNTVYLQMNSLEPEDTAVYYCAADATHSWSYGSRWYDRNYNYWGQGTQVTVSS"}, "B11": {"name": "H40 (VHH)", "VHH": "EVQLVESGGGLVQAGASLRLSCAASGGTFSSYIMGWFRQAPGKEREFVAAISWSGRSTHYADSVKGRFAISRDNDRVYLQMNSLKPEDTAVYSCAADPNYTWRDDRYYREEGYTYWGQGTQVTVSS"}, "B12": {"name": "H42 (VHH)", "VHH": "HVQLVESGGGLVQAGGSLRLSCAASGLTFSNYAMGWFRQAPGKEREFVVAISWSGANTYYSDSVKGRFTASRDNAKKTVYLQMNSLKPEDTAVYYCAADYRGLGYSTAHEYDYWGQGTQVTVSS"}, "B13": {"name": "H44 (VHH)", "VHH": "EVQLVESGGGLAQAGGSLRLSCAASGGTFSNSCMGWFRQAPGMEREFVAIIRSTGHTTYADSVEGRFTVSRDIAKNTVYLEMNSLKPEDTAVYSCAAGASDYGCYHTSGISYWGQGTQVTVSS"}}, "note": "Substitutions are numbered along the chain they refer to."}
{"target": "human serum albumin (human) (UniProt P02768)", "sequence (P02768 25-609 limits assumed)": "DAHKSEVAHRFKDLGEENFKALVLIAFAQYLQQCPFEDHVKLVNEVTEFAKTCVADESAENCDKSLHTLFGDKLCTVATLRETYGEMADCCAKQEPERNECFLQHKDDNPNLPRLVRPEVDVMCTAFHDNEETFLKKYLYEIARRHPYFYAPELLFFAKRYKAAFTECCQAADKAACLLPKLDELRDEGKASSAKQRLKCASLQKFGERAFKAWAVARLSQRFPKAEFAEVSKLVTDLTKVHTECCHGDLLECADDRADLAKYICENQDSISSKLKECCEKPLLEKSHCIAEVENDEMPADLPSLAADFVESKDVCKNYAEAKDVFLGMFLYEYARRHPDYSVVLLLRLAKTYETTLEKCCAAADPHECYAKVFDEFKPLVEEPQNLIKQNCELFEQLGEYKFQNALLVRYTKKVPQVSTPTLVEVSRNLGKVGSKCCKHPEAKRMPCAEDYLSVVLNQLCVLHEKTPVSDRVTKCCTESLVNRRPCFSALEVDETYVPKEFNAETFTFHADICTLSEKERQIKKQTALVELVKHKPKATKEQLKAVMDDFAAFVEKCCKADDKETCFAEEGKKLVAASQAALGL", "assay": "indirect ELISA, HSA coated"}
{"binder": "B1", "ELISA affinity (LogIC50 (oD450nm))": 1.46}
{"binder": "B2", "ELISA affinity (LogIC50 (oD450nm))": 1.96}
{"binder": "B3", "ELISA affinity (LogIC50 (oD450nm))": 1.62}
{"binder": "B4", "ELISA affinity (LogIC50 (oD450nm))": 1.07}
{"binder": "B5", "ELISA affinity (LogIC50 (oD450nm))": 5.33}
{"binder": "B6", "ELISA affinity (LogIC50 (oD450nm))": 5.03}
{"binder": "B7", "ELISA affinity (LogIC50 (oD450nm))": 5.07}
{"binder": "B8", "ELISA affinity (LogIC50 (oD450nm))": 1.49}
{"binder": "B9", "ELISA affinity (LogIC50 (oD450nm))": 2.44}
{"binder": "B10", "ELISA affinity (LogIC50 (oD450nm))": 5.2}
{"binder": "B11", "ELISA affinity (LogIC50 (oD450nm))": 3.16}
{"binder": "B12", "ELISA affinity (LogIC50 (oD450nm))": 4.92}
{"binder": "B13", "ELISA affinity (LogIC50 (oD450nm))": 5.62}
